Test results as given in patent US20030171273, “Novel transcription factor, BP1” (published 2003).

Molecular target: beta-galactosidase (UniProt P00722 P00722:2-1024)
Test: EMSA; data not shown; negative control protein
Details: tags: pure protein, chain copies: 4, label: 32P
Description: 11:1475-1489). Protein extracts from lysogens were prepared as described (see, for example, Cowell, I. G. and H. C. Hurst. 199. Cloning transcription factors from a cDNA expression library, p.120-122. In D. S. Latchman (ed.), Transcription factors: a practical approach. IRL Press, New York). Competitors were pre-incubated with nuclear extract for 20 minutes prior to addition of the probe. Oligonucleotides sequences of probes and competitors for EMSA analyses are shown below.
To verify that the cDNA encoded a protein with the expected binding specificities of BP1, namely, the ability to bind to Silencers I and II upstream of the β-globin gene and to a sequence −530 bp upstream of the δ-globin gene (see, for example, Berg, P. E., S. Abhyankar, and M. Chase. 1994. The high mobility group protein HMG-I(Y) binds to a silencer DNA sequence upstream of the human β-globin gene. Blood 84 Suppl 1:262a), an EMSA competition assay was performed. The putative BP1 protein, fused to β-galactosidase, was expressed from a λ lysogen, as described above. This fusion protein was partially purified and incubated with the Silencer II probe used for screening the library, resulting in a single shifted band, indicated by the arrow (FIG. 2, lane 1). The band at the top marks the position of the wells, and the band at the bottom contains the unshifted probe. […]

Sequence of beta-galactosidase (P00722 2-1024, one chain of several): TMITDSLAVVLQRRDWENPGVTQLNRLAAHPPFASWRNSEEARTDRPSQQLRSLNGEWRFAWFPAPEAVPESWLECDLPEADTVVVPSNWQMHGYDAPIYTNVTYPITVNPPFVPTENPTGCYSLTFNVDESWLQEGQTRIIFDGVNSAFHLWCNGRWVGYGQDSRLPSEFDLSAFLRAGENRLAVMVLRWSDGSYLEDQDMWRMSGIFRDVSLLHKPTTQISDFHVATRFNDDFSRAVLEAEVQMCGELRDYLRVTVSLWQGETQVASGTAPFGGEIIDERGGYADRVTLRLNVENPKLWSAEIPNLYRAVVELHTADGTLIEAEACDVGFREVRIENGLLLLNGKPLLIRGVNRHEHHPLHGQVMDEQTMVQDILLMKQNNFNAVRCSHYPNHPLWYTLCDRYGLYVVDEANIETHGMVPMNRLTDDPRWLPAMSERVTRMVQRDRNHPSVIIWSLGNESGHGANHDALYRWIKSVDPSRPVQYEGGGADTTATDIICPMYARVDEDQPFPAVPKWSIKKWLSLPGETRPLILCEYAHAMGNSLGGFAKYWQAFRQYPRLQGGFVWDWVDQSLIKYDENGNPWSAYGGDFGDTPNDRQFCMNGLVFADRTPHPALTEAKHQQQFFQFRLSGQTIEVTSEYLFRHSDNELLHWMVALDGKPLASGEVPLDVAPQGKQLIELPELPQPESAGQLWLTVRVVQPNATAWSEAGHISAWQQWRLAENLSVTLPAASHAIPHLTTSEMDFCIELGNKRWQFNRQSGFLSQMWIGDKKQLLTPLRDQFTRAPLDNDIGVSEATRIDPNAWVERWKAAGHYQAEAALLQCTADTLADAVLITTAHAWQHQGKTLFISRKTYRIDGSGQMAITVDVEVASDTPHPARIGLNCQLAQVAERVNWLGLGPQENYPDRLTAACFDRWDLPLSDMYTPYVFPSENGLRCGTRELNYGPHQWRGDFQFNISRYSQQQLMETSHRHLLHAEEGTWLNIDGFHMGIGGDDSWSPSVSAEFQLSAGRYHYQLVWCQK

B1: -300 beta (Silencer II) (dsDNA)
DNA 1: TTCTTATTTGTGTAATAAGAAAATTGGGAAAACGATCTTCAATATGCTTACCAAGCTG
DNA 2: CAGCTTGGTAAGCATATTGAAGATCGTTTTCCCAATTTTCTTATTACACAAATAAGAA
Does B1 bind?
Result: no binding
